Test results as given in paper PMC8563793, “C-Glycoside metabolism in the gut and in nature: Identification, characterization, structural analyses and distribution of C-C bond-cleaving enzymes” (Nature Communications, 2021).

Legend:
EuCGD (DfgA-B complex) = EuCGD (DfgA-B complex) ([Eubacterium] cellulosolvens, UniProt I5AX49+I5AX50); experiment: steady-state kinetics, HPLC of aglycone; conditions: 30 °C, 2 min, 2 μM enzyme; enzymatically prepared substrate
purified protein [1] = substrate: O=C1[C@@H](O)[C@H](c2c(O)cc(O)c3c(=O)cc(-c4ccc(O)c(O)c4)oc23)O[C@H](CO)[C@H]1O; experiment: purified protein; conditions: 30 °C, 30 min, 2 μM enzyme, enzymatically prepared substrate
purified protein [2] = substrate: O=C1[C@@H](O)[C@H](c2c(O)cc3oc(-c4ccc(O)c(O)c4)cc(=O)c3c2O)O[C@H](CO)[C@H]1O; experiment: purified protein; conditions: 30 °C, 2 μM enzyme, enzymatically prepared substrate
purified protein [3] = substrate: O=C1[C@@H](O)[C@H](c2c(O)cc3oc(-c4ccc(O)cc4)cc(=O)c3c2O)O[C@H](CO)[C@H]1O; experiment: purified protein; conditions: 30 °C, 2 μM enzyme, enzymatically prepared substrate
purified protein [4] = substrate: O=C1[C@@H](O)[C@H](c2c(O)cc3oc4cc(O)c(O)cc4c(=O)c3c2O)O[C@H](CO)[C@H]1O; experiment: purified protein; conditions: 30 °C, 30 min, 2 μM enzyme, enzymatically prepared substrate
purified protein [5] = substrate: Cc1c(C(=O)O)c(O)cc2c1C(=O)c1c(O)c([C@@H]3O[C@H](CO)[C@@H](O)C(=O)[C@H]3O)c(O)c(O)c1C2=O; experiment: purified protein; conditions: 30 °C, 30 min, 2 μM enzyme, enzymatically prepared substrate
[6] = substrate: O=C1[C@@H](O)[C@H](c2c(O)cc3oc4cc(O)c(O)cc4c(=O)c3c2O)O[C@H](CO)[C@H]1O; experiment: steady-state kinetics, HPLC of aglycone; format: biochemical, Microbacterium trichothecenolyticum; conditions: 30 °C, 30 min, 2 μM enzyme, enzymatically prepared substrate
[7] = substrate: O=C1[C@@H](O)[C@H](c2c(O)cc3oc(-c4ccc(O)c(O)c4)cc(=O)c3c2O)O[C@H](CO)[C@H]1O; experiment: steady-state kinetics, HPLC of aglycone; format: biochemical, Microbacterium trichothecenolyticum; conditions: 30 °C, 30 min, 2 μM enzyme, enzymatically prepared substrate
[8] = substrate: O=C1[C@@H](O)[C@H](c2c(O)cc3oc(-c4ccc(O)cc4)cc(=O)c3c2O)O[C@H](CO)[C@H]1O; experiment: steady-state kinetics, HPLC of aglycone; format: biochemical, Microbacterium trichothecenolyticum; conditions: 30 °C, 30 min, 2 μM enzyme, enzymatically prepared substrate
[9] = substrate: O=C1[C@@H](O)[C@H](c2c(O)ccc3c(=O)c(-c4ccc(O)cc4)coc23)O[C@H](CO)[C@H]1O; experiment: steady-state kinetics, HPLC of aglycone; format: biochemical, human intestinal bacterium PUE; conditions: 30 °C, 2 min, 2 μM enzyme, enzymatically prepared substrate
[10] = substrate: O=C1[C@@H](O)[C@H](c2c(O)cc(O)c3c(=O)cc(-c4ccc(O)c(O)c4)oc23)O[C@H](CO)[C@H]1O; experiment: steady-state kinetics, HPLC of aglycone; format: biochemical, human intestinal bacterium PUE; conditions: 30 °C, 90 min, 5 μM enzyme, enzymatically prepared substrate

In the case of `O=C1[C@@H](O)[C@H](c2c(O)cc3oc4cc(O)c(O)cc4c(=O)c3c2O)O[C@H](CO)[C@H]1O` [compound 5, 3’-oxo-mangiferin], the Km (EuCGD (DfgA-B complex)) is reported as greater than 5 mM.

B1: AgCGD2 (Arthrobacter globiformis NBRC 12137) (protein)
chain 1: MSEGIAGSGIELGITLYSLTSEFAAGLYTPETLIKAVADEGLGPGVEFNIAQMLRTYPDVDDDFVKLWRDSMDRYGLTPSAVGTNLDMGRRKDRDMTPDEEYDFFAAQLRTANKLGFHRVVIRSAGKELLRRLLPLAEKYDQKLGYEIHAPQGPNDPKILQIREMYAELGSDRLGFTADFSSTMHSLSPTLFRTLTQMGLPEEHFAVMQDIWRKPLPMQERNQEFEDYLRANNFDPAQLGPFTRLAFNMHGLVPPEEWLDIMPQIFHVHAKFYDIDENGNEPAMDIPRIVRQFVKGGYRGYLSSEWEGHAFADLGESDPIDLVKKQHSLMRRAIEEAVDPTVSQPALVETAK
chain 2: MATHNSLFQDSDVRKHPEGIAVSVQLPWYRSLWLSAVDDVAATVNGVKIPRESLRFELQGQTYSIAELPEQWETLWFVADKPDVVIPLDRIPDAGEEIDVEVILTLRLLYMQIAPMRYVGNRVAVERKVVLA
With B1 the kcat (purified protein [1]) was 0.667 ± 0.083 s⁻¹.

B2: EuCGD (DfgA-B complex) ([Eubacterium] cellulosolvens 6) (protein)
chain 1: MYRYEKKGPKRGVALYSYSAEFGLTKTLEDCFEDLHDMGAHGIEILANTHIENYPYPTDEWVEKWWRLCDKYEIVPVEYGNWIDSHVLGDRDLTTEESVEMLKRDIRLAHRLGFTVMRTKMPVINDLLEPVENWKEIIKGALPLAEELGIKMCPEIHTPSNLKGKLVNDFVEFIKETGTKNFGLNIDFSVFRTSFAEGEWVDPNYTPNKPEDIIPLLPYVYCCHAKFIHMSDDFKETTIPYEEVVKTMEDNGYEGYLLSEYEGADKYDEGYEVGQTLRKHHILLKNLLGD
chain 2: MEKQVIQSVGFRNIKNGNGEITGFQFKVKLPYYRGVFLSQIRPGTLFVDGQKIEKDQITWTINGEEYTNQEMRGDFKTHWATTKPAVLKVKMPGGLAQGYHDLKYGFCFTSSYMPPIIQDGLDPDKESMVYMPEFGHHVNERRLLIV
Molecule B2 has a Km (purified protein [2]; 2 min) of 11 mM, a kcat (purified protein [2]; 2 min) of 0.0045 s⁻¹ and a Km (purified protein [3]; 2 min) of 3.6 mM. It also gave a kcat (purified protein [3]; 2 min) of 0.003 s⁻¹.

B3: AgCGD1 (Arthrobacter globiformis NBRC 12137) (protein)
chain 1: MTSLGTPIQGVTLYSFTRAFHARQYDLDGLIRKVAAEGFGPGLELIGFSSLRGFPDGIDDAFVGQFRDLVAEVDLIPTSLAVNVDTGIRRDRLMNHDELVEYMSKQIEVAARLGFPIARVQISLTPDAMESLLPVAEKYGVTLALEVHADQHGAHERVLALRDRYEKLDSPLLGFTADWGATVTGFAPSLLEAYRRRGAAEDLLRQVVELWNGFYAEGPPNTQKVHGERFGAFIGLAARSGRPDLGIDFAINGTGLFGPAPLDTWLEIMPWVRHVHGKFFGIDENGEEPSVPVRDLVRQLVENGYSGAISSEYEGWHWNNWQDPFDIIRGEQAVQRSAAANAGSAMITDASEARRILNSHLAQPVRG
chain 2: MIADRIIEHGTLITRDGRAAVEVRIPWYRALPGSCIAGAALTVDGVAAPEDTLRWTMNNRTFSFEELVDETGEWWFPLDSAVLSGDLPVWDDQAEHEVRVDLKLCIPYIITDHGVLHIEEHDTKTMKVAQQ
In the case of B3, the Km (purified protein [4]) is reported as 3.7 ± 0.5 mM, the kcat (purified protein [4]) is reported as 0.00283 ± 0.00017 s⁻¹ and the Km (purified protein [2]; 30 min) is reported as 3.4 ± 0.3 mM. For the same molecule, the kcat (purified protein [2]; 30 min) was 0.0095 ± 0.00033 s⁻¹, the Km (purified protein [3]; 30 min) was 3.5 ± 0.4 mM and the kcat (purified protein [3]; 30 min) was 0.0767 ± 0.0033 s⁻¹.

B4: MiCGD (CarB-C complex) (Microbacterium sp.) (protein)
chain 1: MTALALPRLGVTLYSFTPYYHAREYSFEDLIRIAGERDLGPGLEIVGYQSIKGFPKLPDGFVKDFRRRVDEAGLELSAMGANADAGIPHDRLLNEDELTEYMAHQLHTAKELGFPIVRVQHSVTPDLMERLLPLAEKLDLTMGMEIHSPHSVHHPKIQALVERYEKLGSPHLGFIPDWGASLTRLPPSALQTYAAADVPRELLDAYDRQWDVFHAEGVITTDAEQGAQFRRMRELNERFGGDDVSVRIGTNAVGLFGHQRPEDWSAIMPWVVHVHGKFYGIDENGEEPSVPHGLLLRQLVDAGYTGYISSEWEGWHWNTTDDPFEMVAWQHRLMRRIFGEIEAEAGVR
chain 2: MFRERIIVQDSLVADESGSAFRIRLPWYRALPLSTIEELSVTVDGTAFDPARLRIAVNDGEWALAEAQLRTDDVWFVLDDATVRLPGLVLDAGAHEVQATLSMRIPYLPVAGKPLSMAETDQKRMDVKELTA
In the case of B4, the Km (purified protein [5]) is reported as 0.39 mM.

B5: MtCGD (Microbacterium trichothecenolyticum) (protein)
chain 1: MTALGTPIQGVTLYSFTRAFHGREYDLEGLIRKTAADGFGPGLEIIGFSSFRGFPAIDDAYAGWFRDLIDEVGLVTTSLAVNADIGIHRDRLLNQDELIEYMTLQIKAAAKLGFPIARVQISIEPDSMEALAPIAEAHGVTLALEVHADQYASHPRILALRDRYEKVGSPFLGFTMDWGATVSGFAPSLIEAYRRRGASEELLGQVVDLWNTYYEQGPPADQADHGQRFGSFIGLAARHGRPDLGIDFGINGTGLFGPARVDDWRTIAPWIKHVHGKFFGIDENGEEPSVPVRDLVKLLVENGYNGAISSEYEGWHWNYWQSPFDIISDEQAVQRSAAEAAGSRMITDLAEARTQLGAWLPNTEGAHA
chain 2: MIPDRIIEQGTLRTDGPRAAVEVRLPWYRALPGSCIAGAELTIDGKTAPAESLRWEMNGAEFTFDELRTNIDEWWFPTDSAVLSGDLDIEADAEHEVTVGLTLYIPYIIISDTETLHIDEKNTKTMKAVAA
With B5 the Km [6] was 6.1 ± 1.4 mM, the kcat [6] was 0.01 ± 0.0012 s⁻¹ and the kcat [7] was 0.35 ± 0.033 s⁻¹. It also gave a Km [8] of 8.2 ± 1.8 mM and a kcat [8] of 0.533 ± 0.083 s⁻¹.

B6: PuCGD (DgpB-C complex) (human intestinal bacterium PUE) (protein)
chain 1: MSNVKLGVTLYSFSTEYCQGKMTLEDCIRTAKELGAAGFEIVATQMIPSYPYVSDKFLGELKSICQYYDMEPVCYGANCDRGLRGDRNLTGDEMVAMAVRDIKNAHKMGCKVVREQWLMGPENFAKLAPFAEHYGVKVGIEVHNPETPITQSTKDYIAAIDKTGSKYLGLIPDFGCFANKPNKMNWDNALADGADKKLLEMARDMKYDNVPYDEAVKRLTAAGAKKVELTTMRDMYTFLTFKKDVSAELQGLKDMIPYCIHMHGKYHYMYENLQEAAIPYDDIMKIVSESDYDGYIVSEYEEYNSGHSIEMLRRHLKMMHNFVD
chain 2: MGLALRLNFVDVVCDDSLKNFWANGKKIGYQFDVRLSYYRGHFLSTIDEIGVKVDGVDVPAENISLCLDGKEYGVAELHDLVNVFWPIIEPATIKVFQPGGLSEEEHDVDFTLYFRSPYMALSETEYQSIDSCGSKRLNVQN
In the case of B6, the Km [9] is reported as 12 mM, the kcat [9] is reported as 0.00683 s⁻¹ and the Km [10] is reported as 0.79 mM.
